According to US12624123B2, “Compositions and methods for reducing off-target toxicity of antibody drug conjugates” (The Research Foundation for The State University of New York, priority 2019, dated 2026):
Where “and” joins values, the source holds several entries; their conditions need not be identical. Equal values may be shown once. Entries after “also recorded” stand apart in the source; their conditions may differ.

Experiments:
[1] = test system: SK-BR-3 cells; assay: MTT cytotoxicity assay in SK-BR-3 cells; assay type: cell-based; conditions: 24 h exposure, 10 μM sdAb
Description: Positive clone sdAbs' DNA in pComb3XSS plasmid was isolated and transferred into pET-22b expression vector in SHuffle cells for expression. SK-BR-3 cells were used to test the anti-DM4 sdAbs effect on DM4 cytotoxicity. Briefly, 2,500 cells/well were seeded into a 96-well plate and allowed to adhere for 24 h before cell culture media was aspirated and replaced with 100 μL of fresh media solution containing with or without 10 μM of anti-DM4 sdAb and a range of DM4 concentration for another 24 h exposure period. The cells were then washed 2 times before replacing with fresh media and allowed to grow for additional 72 h.

[2] = Competitive ELISA with free DM4; assay type: binding
Description: To determine the binding affinity of the anti-DM4 sdAbs to DM4-conjugates and free DM4, indirect ELISA and competitive ELISA were employed. Briefly, ELISA plate were coated overnight with 100 μL of neutravidin at different concentration ranging from 1 μg/mL to 10 μg/mL. After blocking with 200 μL of 2% skimmed milk-PBST for 1 h, 100 μL of 1 μM biotin-DM4 solution was added into each well and incubated for 30 min, then 100 μL of purified anti-DM4 sdAb solution at concentration ranging from 0.1 nM to 1 μM was added and incubated for 1 h. Bound sdAbs were detected with HRP conjugated anti-His antibody and TMB substrate. After the linear range of binding was determined via the indirect ELISA, a concentration of anti-DM4 sdAb near the IC50 of binding was selected to proceed with competitive ELISA. For the competitive ELISA, anti-DM4 sdAb concentration was held constant as determined from the indirect ELISA and incubated with increasing concentration of DM4 ranging from 0.1 nM to 1 μM.

[3] = test system: SK-BR-3 cells; assay: MTT cytotoxicity assay in SK-BR-3 cells; assay type: cell-based; conditions: 10 μM DMFH1
[4] = test system: KG-1 cells; assay: MTT assay with DMFH1 in AML cell line KG-1; conditions: KG-1, 48-hour exposure, 10 μM DMFH1
Description: (§1) MTT Cell based assay with DMFH1 in AML cell lines. Cell cytotoxicity of DM4 on MOLM-14, KG-1, Kasumi-3, MV-4-11 cells with and without 10 μM of DMFH1 sdAb over a 48-hour exposure periods.

[5] = test system: MOLM-14 cells; assay: MTT assay with DMFH1 in AML cell line MOLM-14; conditions: MOLM-14, 48-hour exposure, 10 μM DMFH1
Description: as §1

[6] = test system: MV-4-11 cells; assay: MTT assay with DMFH1 in AML cell line MV-4-11; conditions: MV-4-11, 48-hour exposure, 10 μM DMFH1
Description: as §1

[7] = test system: Kasumi-3 cells; assay: MTT assay with DMFH1 in AML cell line Kasumi-3; conditions: Kasumi-3, 48-hour exposure, 10 μM DMFH1
Description: as §1

B1: DMFH1 (protein)
VHH: QVQLQESGGGLVQPGGSLRLSCAASGSIFGISYMGWYRQAPGKQREPVAMITSGGSTYYADSVKGRVTISRDNAKKTVYLQMNSLRPEDASTYYCAAGCYRSDSPNRYDYWGQGTQVTVSS
modifications: DMFH1
Fold shifted (DM4 IC50) [1]: 254 fold and 250.5 fold | Kd ([2]; free DM4, read-out: Estimated KD): 11 nM and 10.5 nM | IC50 ([2]; read-out: Estimated binding affinity IC50 to free DM4): 11 nM | effect on Trastuzumab Emtansine (T-DM1) cytotoxicity [3]: did not alter the cytotoxicity; also recorded: did not change T-DM1 cytotoxicity significantly | fold shift of DM1 IC50 ([3]; 24 h): 85.6 fold | fold shift of DM4 IC50 [4]: 57.2 fold | fold shift of DM4 IC50 [5]: 60.7 fold | fold shift of DM4 IC50 [6]: 50.9 fold | fold shift of DM4 IC50 [7]: 38.3 fold
